{"source": "patent US20240261333A1", "about": "(published 2024)", "assay_in_all_cases": "co-IP, anti-FLAG, N-FLAG B3GNT2 cell lysate, mass spectrometry", "key": {"RPS8": {"molecular_target": "RPS8 (UniProt P62241 2-208)", "method": "(§1) Cells were plated in 10-cm cell culture dishes and grown to 60-80% confluency. For each condition, two biological replicates were harvested for co-IP. Cells were washed with PBS and 4 mL of lysis buffer (20 mM HEPES, 1% Triton X-100, 150 mM NaCl, 1 mM EDTA, and 10% glycerol) containing protease inhibitor cocktail was added. Cells were scraped and lysate was incubated at 4° C. under rotary agitation for 1 h. Lysate was centrifuged at 14,000×g for 10 min at 4° C. Supernatant was transferred to a new tube and an aliquot was taken as the input. […] For Western blots, 10 μg/mL Chicken Anti-FLAG (Aves labs ET-DY100) and IgY control (R&D Systems AB-101-C) antibodies were biotinylated (Thermo Fisher Scientific 90407) and added to the respective conditions. Lysates with antibodies were incubated at 4° C. under rotary agitation overnight. For each mL of lysate, 50 μL of Pierce Protein A/G Magnetic Beads (Mass spectrometry; Thermo Fisher Scientific 88803) or Pierce Streptavidin Magnetic Beads (Western blot; Thermo Fisher Scientific 88817) was washed twice with lysis buffer. Lysates with antibodies were added to the beads and incubated at 4° C. under rotary agitation for 4 h. Beads were washed with lysis buffer 3 times and resuspended in lysis buffer for storage.\n(§2) Magnetic beads were resuspended in 100 mM Tris pH 7.8, reduced, alkylated and digested with trypsin at 37° ° C. overnight. This solution was subjected to solid phase extraction to concentrate the peptides and remove unwanted reagents followed by injection onto a Shimadzu HPLC with fraction collector. Eight fractions were collected and after concentration were injected on a Waters NanoAcquity HPLC equipped with a self-packed Aeris 3 μm C18 analytical column 0.075 mm by 20 cm, (Phenomenex). Peptides were eluted using standard reverse-phase gradients. The effluent from the column was analyzed using a Thermo Orbitrap Elite mass spectrometer (nanospray configuration) operated in a data dependent manner for 54 minutes. The resulting fragmentation spectra were correlated against the known database using Proteome Discover 1.4 (Thermo Fisher Scientific)."}, "RPL22": {"molecular_target": "RPL22 (UniProt P35268 2-128)", "method": "as §1, §2"}, "RPS13": {"molecular_target": "RPS13 (UniProt P62277 2-151)", "method": "as §1, §2"}, "RPS19": {"molecular_target": "RPS19 (UniProt P39019 2-145)", "method": "as §1, §2"}, "SSRP1": {"molecular_target": "T1, SSRP1 (UniProt Q08945 2-709)", "T1 construct": "also called NP_003137.1 (+3)", "T1 sequence (Q08945 2-709 limits assumed)": "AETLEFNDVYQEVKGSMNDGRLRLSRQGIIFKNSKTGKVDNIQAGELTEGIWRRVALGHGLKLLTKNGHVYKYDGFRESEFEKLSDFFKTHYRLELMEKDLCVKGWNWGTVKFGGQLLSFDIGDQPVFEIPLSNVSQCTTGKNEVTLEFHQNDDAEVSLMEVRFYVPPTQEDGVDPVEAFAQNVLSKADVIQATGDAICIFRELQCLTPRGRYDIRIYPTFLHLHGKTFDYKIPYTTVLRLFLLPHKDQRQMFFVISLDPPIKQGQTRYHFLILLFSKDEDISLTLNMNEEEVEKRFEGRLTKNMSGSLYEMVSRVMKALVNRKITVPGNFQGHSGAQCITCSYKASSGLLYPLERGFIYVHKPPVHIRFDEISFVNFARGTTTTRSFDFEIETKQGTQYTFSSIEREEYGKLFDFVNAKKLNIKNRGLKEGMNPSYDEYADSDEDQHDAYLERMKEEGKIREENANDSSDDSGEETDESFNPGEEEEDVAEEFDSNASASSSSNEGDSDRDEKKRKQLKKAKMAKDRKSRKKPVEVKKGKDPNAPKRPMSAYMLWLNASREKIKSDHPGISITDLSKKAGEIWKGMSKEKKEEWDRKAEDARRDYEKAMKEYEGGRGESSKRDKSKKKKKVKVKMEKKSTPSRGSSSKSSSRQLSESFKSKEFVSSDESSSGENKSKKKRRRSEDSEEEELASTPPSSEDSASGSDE", "method": "as §1, §2"}, "HSPB1": {"molecular_target": "T2, HSPB1 (UniProt P04792 1-205)", "T2 construct": "also called NP_001531.1", "T2 sequence (P04792 whole entry)": "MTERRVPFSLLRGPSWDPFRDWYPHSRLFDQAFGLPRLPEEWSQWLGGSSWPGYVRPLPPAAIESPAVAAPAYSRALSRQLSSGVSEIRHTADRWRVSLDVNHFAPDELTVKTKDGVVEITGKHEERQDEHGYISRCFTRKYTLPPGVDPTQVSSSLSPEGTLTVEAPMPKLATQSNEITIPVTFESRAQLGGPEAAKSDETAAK", "method": "as §1, §2"}, "NCCRP1": {"molecular_target": "T3, NCCRP1 (UniProt Q6ZVX7 1-275)", "T3 construct": "also called NP_001001414.1", "T3 sequence (looked up)": "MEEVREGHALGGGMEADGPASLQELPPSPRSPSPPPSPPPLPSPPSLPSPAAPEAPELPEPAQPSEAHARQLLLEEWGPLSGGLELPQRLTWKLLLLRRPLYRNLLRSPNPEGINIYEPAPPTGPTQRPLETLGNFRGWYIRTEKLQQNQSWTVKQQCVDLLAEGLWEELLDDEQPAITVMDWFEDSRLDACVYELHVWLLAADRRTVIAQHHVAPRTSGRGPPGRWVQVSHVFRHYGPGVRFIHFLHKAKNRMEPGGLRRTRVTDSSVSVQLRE", "method": "as §1, §2"}, "SRSF1": {"molecular_target": "T4, SRSF1 (UniProt Q07955 2-248)", "T4 construct": "also called NP_008855.1", "T4 sequence (Q07955 2-248 limits assumed)": "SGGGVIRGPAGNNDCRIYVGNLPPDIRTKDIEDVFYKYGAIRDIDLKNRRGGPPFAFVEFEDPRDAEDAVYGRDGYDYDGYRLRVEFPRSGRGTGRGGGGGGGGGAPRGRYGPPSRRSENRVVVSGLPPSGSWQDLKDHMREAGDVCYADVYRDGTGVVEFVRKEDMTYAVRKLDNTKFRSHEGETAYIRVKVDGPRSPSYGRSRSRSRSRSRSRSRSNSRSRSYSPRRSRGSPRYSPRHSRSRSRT", "method": "as §1, §2"}, "TXN": {"molecular_target": "T5, TXN (UniProt P10599 2-105)", "T5 construct": "also called NP_003320.2", "T5 sequence (looked up)": "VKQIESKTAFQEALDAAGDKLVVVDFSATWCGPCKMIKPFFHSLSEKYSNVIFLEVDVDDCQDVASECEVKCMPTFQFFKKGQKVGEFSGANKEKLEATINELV", "method": "as §1, §2"}, "HNRNPU": {"molecular_target": "T6, HNRNPU (UniProt Q00839 2-825)", "T6 construct": "also called NP_114032.2", "T6 sequence (Q00839 2-825 limits assumed)": "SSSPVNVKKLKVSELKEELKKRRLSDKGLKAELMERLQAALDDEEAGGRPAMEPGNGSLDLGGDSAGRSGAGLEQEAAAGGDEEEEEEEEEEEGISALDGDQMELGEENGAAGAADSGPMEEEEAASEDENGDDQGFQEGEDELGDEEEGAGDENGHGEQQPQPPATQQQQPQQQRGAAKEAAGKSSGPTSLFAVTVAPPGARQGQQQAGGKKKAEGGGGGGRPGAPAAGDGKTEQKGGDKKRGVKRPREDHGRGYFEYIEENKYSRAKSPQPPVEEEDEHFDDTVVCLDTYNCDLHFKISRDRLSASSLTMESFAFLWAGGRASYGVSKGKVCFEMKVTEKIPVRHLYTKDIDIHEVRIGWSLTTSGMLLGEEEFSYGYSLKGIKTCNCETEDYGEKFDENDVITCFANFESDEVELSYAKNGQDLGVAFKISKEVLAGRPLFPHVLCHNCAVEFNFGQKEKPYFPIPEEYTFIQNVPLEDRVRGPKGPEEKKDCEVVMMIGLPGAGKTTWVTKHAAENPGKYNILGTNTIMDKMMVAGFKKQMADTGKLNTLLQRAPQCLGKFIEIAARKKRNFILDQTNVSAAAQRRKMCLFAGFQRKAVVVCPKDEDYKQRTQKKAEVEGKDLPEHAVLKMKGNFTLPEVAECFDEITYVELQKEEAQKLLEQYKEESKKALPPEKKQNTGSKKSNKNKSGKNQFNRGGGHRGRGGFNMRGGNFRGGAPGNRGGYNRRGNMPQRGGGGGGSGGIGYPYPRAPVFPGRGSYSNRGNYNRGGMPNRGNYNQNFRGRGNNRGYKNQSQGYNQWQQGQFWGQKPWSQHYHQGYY", "method": "as §1, §2"}, "RPL5": {"molecular_target": "RPL5 (UniProt P46777 2-297)", "method": "as §1, §2"}}}
{"binder": "N-terminal FLAG tagged B3GNT2 (enzyme, human, UniProt Q9NY97 1-397, looked up, Bait of the co-IP; pulled down with mouse anti-FLAG from cell lysate; also called N-FLAG B3GNT2; N-term FLAG; not shown: FLAG tag at the N-terminus) MSVGRRRIKLLGILMMANVFIYFIMEVSKSSSQEKNGKGEVIIPKEKFWKISTPPEAYWNREQEKLNRQYNPILSMLTNQTGEAGRLSNISHLNYCEPDLRVTSVVTGFNNLPDRFKDFLLYLRCRNYSLLIDQPDKCAKKPFLLLAIKSLTPHFARRQAIRESWGQESNAGNQTVVRVFLLGQTPPEDNHPDLSDMLKFESEKHQDILMWNYRDTFFNLSLKEVLFLRWVSTSCPDTEFVFKGDDDVFVNTHHILNYLNSLSKTKAKDLFIGDVIHNAGPHRDKKLKYYIPEVVYSGLYPPYAGGGGFLYSGHLALRLYHITDQVHLYPIDDVYTGMCLQKLGLVPEKHKGFRTFDIEEKNKNNICSYVDLMLVHSRKPQEMIDIWSQLQSAHLKC", "values": [{"measurement": "co-IP mass spectrometry count", "setting": "RPS8", "result": 6}, {"measurement": "co-IP mass spectrometry count", "setting": "RPL22", "result": 0}, {"measurement": "co-IP mass spectrometry count", "setting": "RPS13", "result": 3}, {"measurement": "co-IP mass spectrometry count", "setting": "RPS19", "result": 5}, {"measurement": "co-IP mass spectrometry count", "setting": "SSRP1", "result": 0}, {"measurement": "co-IP mass spectrometry count", "setting": "HSPB1", "result": 3}, {"measurement": "co-IP mass spectrometry count", "setting": "NCCRP1", "result": 4}, {"measurement": "co-IP mass spectrometry count", "setting": "SRSF1", "result": 4}, {"measurement": "co-IP mass spectrometry count", "setting": "TXN", "result": 3}, {"measurement": "co-IP mass spectrometry count", "setting": "HNRNPU", "result": 0}, {"measurement": "co-IP mass spectrometry count", "setting": "RPL5", "result": 0}]}
